Data published in EP3470428A1 (Numab Innovation AG, dated 2019).
Where a chain is given by its changes, count along the chain named.

Key:
[1] = target: human PD-L1 expressed on cells (human, UniProt Q9NZQ7 19-290); test: cell-based or functional assay
biotinylated human PD-L1 [2] = target: T1, biotinylated human PD-L1 (human, UniProt Q9NZQ7 19-238, limits assumed, biotinylated); test: competition ELISA; coated human B7.1 as competitor; biotinylated PD-L1 pre-incubated with inhibitor
T1 construct: also called biotinylated PD-L1

biotinylated human PD-L1 [3] = target: T1, biotinylated human PD-L1; test: competition ELISA; coated human PD-1 as competitor; biotinylated human PD-L1 pre-incubated with inhibitor
[4] = target: T2, human CD137 expressed on cells (human, UniProt Q07011 24-255); test: cell-based or functional assay
[5] = target: T2, human CD137 expressed on cells; test: cell-based or functional assay; remark: listed apart in the source
[6] = target: T2, human CD137 expressed on cells; test: cell-based or functional assay; remark: listed apart in the source
[7] = target: T2, human CD137 expressed on cells; test: cell-based or functional assay; remark: listed apart in the source
[8] = target: T2, human CD137 expressed on cells; test: cell-based or functional assay; remark: listed apart in the source
[9] = target: T2, human CD137 expressed on cells; test: cell-based or functional assay; remark: listed apart in the source
[10] = target: T2, human CD137 expressed on cells; test: cell-based or functional assay; remark: listed apart in the source
[11] = target: human PD-L1-Fc chimeric protein (human, UniProt Q9NZQ7 19-239); test: SPR (Biacore T200); PD-L1-Fc captured by anti-human Fc
human serum albumin = target: T3, human serum albumin (human, UniProt P02768 25-609); test: SPR (Biacore T200); SA amine-coupled; pH 5.5
T3 construct: Amine-coupled to a CM5 chip; assay at pH 5.5; also called HSA; human SA

B1: PRO1059: 33-03-G02 IgG1 LC with 38_02_A04 sc01 scFV, PD-L1/CD137(scFv) silent Morrison (bispecific antibody)
light: DIQMTQSPSSLSASVGDRVTITCQASQSINDYLAWYQQKPGKAPKLLIYKASTLASGVPSRFSGSGSGTDFTLTISSLQPEDFATYYCQQGYIITDIDNVFGTGTKVTVLGTVAAPSVFIFPPSDEQLKSGTASVVCLLNNFYPREAKVQWKVDNALQSGNSQESVTEQDSKDSTYSLSSTLTLSKADYEKHKVYACEVTHQGLSSPVTKSFNRGECGGGGSGGGGSIQMTQSPSSLSASVGDRVTITCQASQSINNVLAWYQQKPGKAPKLLIYRASTLASGVPSRFSGSGSGTDFTLTISSLQPEDFATYYCQSSYGNYGDFGTGTKVTVLGGGGGSGGGGSGGGGSGGGGSQVQLQESGPGLVKPSETLSLTCKVSGFSFSNSYWICWIRQPPGKGLEWIGCTFVGSSDSTYYANWAKGRVTISVDSSKNQFSLKLSSVTAADTAVYYCARHPSDAVYGYANNLWGQGTLVTVSS
heavy: QVQLQESGPGLVKPSETLSLTCKVSGFSFSSGYDMCWIRQPPGKGLEWIGCVVAGSVDITYYASWAKGRVTISVDSSKNQFSLKLSSVTAADTAVYYCARKDAYSDAFNLWGQGTLVTVSSASTKGPSVFPLAPSSKSTSGGTAALGCLVKDYFPEPVTVSWNSGALTSGVHTFPAVLQSSGLYSLSSVVTVPSSSLGTQTYICNVNHKPSNTKVDKRVEPKSCDKTHTCPPCPAPEAAGGPSVFLFPPKPKDTLMISRTPEVTCVVVDVSHEDPEVKFNWYVDGVEVHNAKTKPREEQYNSTYRVVSVLTVLHQDWLNGKEYKCKVSNKALGAPIEKTISKAKGQPREPQVYTLPPSREEMTKNQVSLTCLVKGFYPSDIAVEWESNGQPENNYKTTPPVLDSDGSFFLYSKLTVDKSRWQQGNVFSCSVMHEALHNHYTQKSLSLSPGK
notes: IgG-scFv fusion, scFv on the light chain; also called Morrison-L
- IC50 (ng/ml), neutralization of PD-L1/PD-1 interaction, NFAT-luciferase reporter gene assay [1]: 93.8 ng/mL
- IC50 (biotinylated human PD-L1 [2]): 0.029 µg/mL
- IC50 (biotinylated human PD-L1 [3]): 0.00454 µg/mL

B2: PRO1013 (anti-PD-L1 scFv, CDR set of clone 37-20-B03 grafted on a VH1 framework) (scFv)
chain: DIQMTQSPSSLSASVGDRVTITCQASQSIGTYLAWYQQKPGKAPKLLIYRAFILASGVPSRFSGSGSGTDFTLTISSLQPEDFATYYCQSNFYSDSTTIGPNAFGTGTKVTVLGGGGGSGGGGSGGGGSGGGGSQVQLVQSGAEVKKPGASVKVSCKASGFSFNSDYWIYWVRQAPGQGLEWMGSIYGGSSGNTQYASWAQGRVTMTRDTSISTAYMELSSLRSEDTAVYYCARGYVDYGGATDLWGQGTLVTVSS
- IC50 (ng/ml), neutralization of PD-L1/PD-1 interaction, NFAT-luciferase reporter gene assay [1]: 21.3 ng/mL
- IC50 (biotinylated human PD-L1 [2]): 0.00405 µg/mL
- IC50 (biotinylated human PD-L1 [3]): 0.00057 µg/mL

B3: PRO830 (anti-PD-L1 scFv, CDR set of clone 33-03-G02 grafted on a VH4 framework) (scFv)
chain: DIQMTQSPSSLSASVGDRVTITCQASQSINDYLAWYQQKPGKAPKLLIYKASTLASGVPSRFSGSGSGTDFTLTISSLQPEDFATYYCQQGYIITDIDNVFGTGTKVTVLGGGGGSGGGGSGGGGSGGGGSQVQLQESGPGLVKPSETLSLTCKVSGFSFSSGYDMCWIRQPPGKGLEWIGCVVAGSVDITYYASWAKGRVTISVDSSKNQFSLKLSSVTAADTAVYYCARKDAYSDAFNLWGQGTLVTVSS
- IC50 (ng/ml), neutralization of PD-L1/PD-1 interaction, NFAT-luciferase reporter gene assay [1]: 42.9 ng/mL
- IC50 (biotinylated human PD-L1 [2]): 0.0129 µg/mL
- IC50 (biotinylated human PD-L1 [3]): 0.0034 µg/mL

B4: PRO1060: 33-03-G02 IgG1 HC with 38_02_A04 sc01 scFV, PD-L1/CD137(scFv) silent Morrison (bispecific antibody)
light: DIQMTQSPSSLSASVGDRVTITCQASQSINDYLAWYQQKPGKAPKLLIYKASTLASGVPSRFSGSGSGTDFTLTISSLQPEDFATYYCQQGYIITDIDNVFGTGTKVTVLGTVAAPSVFIFPPSDEQLKSGTASVVCLLNNFYPREAKVQWKVDNALQSGNSQESVTEQDSKDSTYSLSSTLTLSKADYEKHKVYACEVTHQGLSSPVTKSFNRGEC
heavy: QVQLQESGPGLVKPSETLSLTCKVSGFSFSSGYDMCWIRQPPGKGLEWIGCVVAGSVDITYYASWAKGRVTISVDSSKNQFSLKLSSVTAADTAVYYCARKDAYSDAFNLWGQGTLVTVSSASTKGPSVFPLAPSSKSTSGGTAALGCLVKDYFPEPVTVSWNSGALTSGVHTFPAVLQSSGLYSLSSVVTVPSSSLGTQTYICNVNHKPSNTKVDKRVEPKSCDKTHTCPPCPAPEAAGGPSVFLFPPKPKDTLMISRTPEVTCVVVDVSHEDPEVKFNWYVDGVEVHNAKTKPREEQYNSTYRVVSVLTVLHQDWLNGKEYKCKVSNKALGAPIEKTISKAKGQPREPQVYTLPPSREEMTKNQVSLTCLVKGFYPSDIAVEWESNGQPENNYKTTPPVLDSDGSFFLYSKLTVDKSRWQQGNVFSCSVMHEALHNHYTQKSLSLSPGKGGGGSGGGGSIQMTQSPSSLSASVGDRVTITCQASQSINNVLAWYQQKPGKAPKLLIYRASTLASGVPSRFSGSGSGTDFTLTISSLQPEDFATYYCQSSYGNYGDFGTGTKVTVLGGGGGSGGGGSGGGGSGGGGSQVQLQESGPGLVKPSETLSLTCKVSGFSFSNSYWICWIRQPPGKGLEWIGCTFVGSSDSTYYANWAKGRVTISVDSSKNQFSLKLSSVTAADTAVYYCARHPSDAVYGYANNLWGQGTLVTVSS
notes: IgG-scFv fusion, scFv on the heavy chain; also called Morrison-H
- IC50 (ng/ml), neutralization of PD-L1/PD-1 interaction, NFAT-luciferase reporter gene assay [1]: 133 ng/mL
- EC50 in ng/ml, CD137 activation, NFkB-luciferase Jurkat reporter assay, PD-L1 expressing CHO cells, 6h [4]: 56.4 ng/mL
- EC50 in ng/ml, CD137 activation, NFkB-luciferase Jurkat reporter assay, PD-L1 expressing CHO cells, 24h [5]: 80.8 ng/mL
- EC50 in ng/ml, CD137 activation, NFkB-luciferase Jurkat reporter assay, HCC827 with IFNy stimulation, 24h [6]: 17.5 ng/mL
- EC50 in ng/ml, CD137 activation, NFkB-luciferase Jurkat reporter assay, HCC827 without IFNy stimulation, 24h [6]: 13.6 ng/mL
- IC50 (biotinylated human PD-L1 [2]): 0.0174 µg/mL
- IC50 (biotinylated human PD-L1 [3]): 0.00567 µg/mL

B5: PRO1123: 38-02-A04 sc05 IF scDb-i/33_03_G02 sc01 scDb-o (bispecific antibody)
chain: DIQMTQSPSSLSASVGDRVTITCQASQSINDYLAWYQQKPGKAPKLLIYKASTLASGVPSRFSGSGSGTDFTLTISSLQPEDFATYYCQQGYIITDIDNVFGTGTKVTVLGGGGGSQVQLQESGPGLVKPSETLSLTCKVSGFSFSNSYWICWVRQPPGKGLEWIGCTFVGSSDSTYYANWAKGRVTISVDSSKNQVSLKLSSVTAADTAVYFCARHPSDAVYGYANNLWGQGTLVTVSSGGGGSGGGGSGGGGSGGGGSIQMTQSPSSLSASVGDRVTITCQASQSINNVLAWYQQKPGKPPKLLIYRASTLASGVPSRFSGSGSGTDFTLTISSLQPEDFATYYCQSSYGNYGDFGTGTKVTVLGGGGGSQVQLQESGPGLVKPSETLSLTCKVSGFSFSSGYDMCWIRQPPGKGLEWIGCVVAGSVDITYYASWAKGRVTISVDSSKNQFSLKLSSVTAADTAVYYCARKDAYSDAFNLWGQGTLVTVSS
notes: scDb
- EC50 in ng/ml, CD137 activation, NFkB-luciferase Jurkat reporter assay, CHO-PD-L1 cells [7]: 5.75 ng/mL
- EC50 in ng/ml, CD137 activation, NFkB-luciferase Jurkat reporter assay, HCC827 cells without IFNg [8]: 16.1 ng/mL
- EC50 in ng/ml, CD137 activation, NFkB-luciferase Jurkat reporter assay, HCC827 cells stimulated with IFNg [9]: 11.9 ng/mL
- max. activation (%), NF-kB reporter gene, CHO-PD-L1; HSA: no [10]: 219%
- max. activation (%), NF-kB reporter gene, HCC827 +IFNg; HSA: no [10]: 154%
- max. activation (%), NF-kB reporter gene, HCC827 -IFNg; HSA: no [10]: 123%
- binding result [11]: binds

B6: PRO1124: 38-02-A04 sc06 Full scDb-i/33_03_G02 sc01 scDb-o (bispecific antibody)
chain: B5 chain with V140A, V190K, I261L
notes: scDb, STR graft of the CD137 domain
- EC50 in ng/ml, CD137 activation, NFkB-luciferase Jurkat reporter assay, CHO-PD-L1 cells [7]: 3.68 ng/mL
- EC50 in ng/ml, CD137 activation, NFkB-luciferase Jurkat reporter assay, HCC827 cells without IFNg [8]: 5.62 ng/mL
- EC50 in ng/ml, CD137 activation, NFkB-luciferase Jurkat reporter assay, HCC827 cells stimulated with IFNg [9]: 4.83 ng/mL
- max. activation (%), NF-kB reporter gene, CHO-PD-L1; HSA: no [10]: 229%
- max. activation (%), NF-kB reporter gene, HCC827 +IFNg; HSA: no [10]: 188%
- max. activation (%), NF-kB reporter gene, HCC827 -IFNg; HSA: no [10]: 113%
- binding result [11]: binds

B7: PRO963 (= PRO1051): 38_02_A04 sc01 scDb-i/33-03-G02 sc01 scDb-o/19-01-H04-sc03 scFv (other)
chain: DIQMTQSPSSLSASVGDRVTITCQASQSINDYLAWYQQKPGKAPKLLIYKASTLASGVPSRFSGSGSGTDFTLTISSLQPEDFATYYCQQGYIITDIDNVFGTGTKVTVLGGGGGSQVQLQESGPGLVKPSETLSLTCKVSGFSFSNSYWICWIRQPPGKGLEWIGCTFVGSSDSTYYANWAKGRVTISVDSSKNQFSLKLSSVTAADTAVYYCARHPSDAVYGYANNLWGQGTLVTVSSGGGGSGGGGSGGGGSGGGGSIQMTQSPSSLSASVGDRVTITCQASQSINNVLAWYQQKPGKAPKLLIYRASTLASGVPSRFSGSGSGTDFTLTISSLQPEDFATYYCQSSYGNYGDFGTGTKVTVLGGGGGSQVQLQESGPGLVKPSETLSLTCKVSGFSFSSGYDMCWIRQPPGKGLEWIGCVVAGSVDITYYASWAKGRVTISVDSSKNQFSLKLSSVTAADTAVYYCARKDAYSDAFNLWGQGTLVTVSSGGGGSGGGGSIQMTQSPSSLSASVGDRVTITCQSSESVYSNNQLSWYQQKPGQPPKLLIYDASDLASGVPSRFSGSGSGTDFTLTISSLQPEDFATYYCAGGFSSSSDTAFGGGTKLTVLGGGGGSGGGGSGGGGSGGGGSEVQLVESGGGLVQPGGSLRLSCAASGFSLSSNAMGWVRQAPGKGLEYIGIISVGGFTYYASWAKGRFTISRDNSKNTVYLQMNSLRAEDTATYFCARDRHGGDSSGAFYLWGQGTLVTVSS
notes: Trispecific scTriabody (scDb-scFv): PD-L1 x CD137 x serum albumin
- IC50 (ng/ml), neutralization of PD-L1/PD-1 interaction, NFAT-luciferase reporter gene assay, with HSA [1]: 275 ng/mL
- max. activation (%), NF-kB reporter gene, CHO-PD-L1; HSA: yes, 24h [10]: 369%
- binding result (human serum albumin): binds
